Experiments:
Assay in all cases: flow cytometry, biotinylated IL-17C (1 ug/ml) + SA-PE on transiently transfected 293fb cells
human IL-17R = target: T1, human IL-17R (human, UniProt Q96F46 33-866)
T1 construct: whole, on cells
T1 sequence (looked up): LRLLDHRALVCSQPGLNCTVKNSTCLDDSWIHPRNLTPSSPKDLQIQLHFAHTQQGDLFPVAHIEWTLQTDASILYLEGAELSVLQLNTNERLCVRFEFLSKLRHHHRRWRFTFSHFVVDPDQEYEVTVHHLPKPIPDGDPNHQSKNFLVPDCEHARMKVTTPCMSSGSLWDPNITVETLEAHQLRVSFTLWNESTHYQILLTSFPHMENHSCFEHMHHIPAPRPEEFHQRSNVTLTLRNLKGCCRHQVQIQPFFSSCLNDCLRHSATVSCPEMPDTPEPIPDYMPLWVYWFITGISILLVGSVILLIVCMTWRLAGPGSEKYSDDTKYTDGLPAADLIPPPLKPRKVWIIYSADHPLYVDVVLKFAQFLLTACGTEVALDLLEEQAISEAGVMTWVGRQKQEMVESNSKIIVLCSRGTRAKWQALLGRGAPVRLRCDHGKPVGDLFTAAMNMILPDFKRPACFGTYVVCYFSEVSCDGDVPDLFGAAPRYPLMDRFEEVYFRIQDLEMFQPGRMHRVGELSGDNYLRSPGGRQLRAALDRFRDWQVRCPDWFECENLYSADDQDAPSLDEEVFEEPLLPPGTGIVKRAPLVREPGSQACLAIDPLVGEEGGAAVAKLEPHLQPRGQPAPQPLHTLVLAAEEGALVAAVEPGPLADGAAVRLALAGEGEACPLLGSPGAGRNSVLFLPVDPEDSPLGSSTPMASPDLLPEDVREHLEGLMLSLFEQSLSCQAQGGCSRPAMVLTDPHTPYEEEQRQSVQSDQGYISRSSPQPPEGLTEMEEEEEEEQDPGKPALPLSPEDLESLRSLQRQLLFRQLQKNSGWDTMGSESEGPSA
Protocol: (§1) 293fb cells that had been transfected with expression vectors encoding human ZcytoR21x1 and ZcytoR21x2 were assessed for their ability to bind biotinylated human IL-17C. Control transfections included 1) no DNA transfection, 2) vector only (pzmp11), and 3) human IL17R. 10⁶ cells were removed from transfected suspension cultures at day 1, day 2, day 3, and day 5. Cells were pelleted and resuspended in 100 ul of staining media (SM), which is HBSS plus 1 mg/ml bovine serum albumin (BSA), 10 mM Hepes, and 0.1% sodium azide (w/v). Biotinylated human IL-17C was incubated with the cells on ice for 45 minutes at a concentration of 1 ug/ml. An APC conjugated anti-human CD8 antibody (BD Pharmingen; cat.#555369) was also added at 1:25 dilution. After 30 minutes, excess cytokine and antibody was washed away with SM and the cells were incubated with a 1:100 dilution of streptavidin conjugated to phycoerythrin (SA-PE; BD Pharmingen; cat# 554061) for 30 minutes on ice. Excess SA-PE was washed away and cells were analyzed by flow cytometry.
(§2) The amount of cytokine binding was detected from the change in the mean fluorescence intensity of the cytokine staining relative to negative controls —1) no DNA transfection and 2) vector only. […] Binding was also seen to human IL-17R.

human ZcytoR21x2 = target: T2, human ZcytoR21x2 (human, UniProt Q8NFR9 24-667)
T2 construct: also called hcytor21x2
T2 sequence: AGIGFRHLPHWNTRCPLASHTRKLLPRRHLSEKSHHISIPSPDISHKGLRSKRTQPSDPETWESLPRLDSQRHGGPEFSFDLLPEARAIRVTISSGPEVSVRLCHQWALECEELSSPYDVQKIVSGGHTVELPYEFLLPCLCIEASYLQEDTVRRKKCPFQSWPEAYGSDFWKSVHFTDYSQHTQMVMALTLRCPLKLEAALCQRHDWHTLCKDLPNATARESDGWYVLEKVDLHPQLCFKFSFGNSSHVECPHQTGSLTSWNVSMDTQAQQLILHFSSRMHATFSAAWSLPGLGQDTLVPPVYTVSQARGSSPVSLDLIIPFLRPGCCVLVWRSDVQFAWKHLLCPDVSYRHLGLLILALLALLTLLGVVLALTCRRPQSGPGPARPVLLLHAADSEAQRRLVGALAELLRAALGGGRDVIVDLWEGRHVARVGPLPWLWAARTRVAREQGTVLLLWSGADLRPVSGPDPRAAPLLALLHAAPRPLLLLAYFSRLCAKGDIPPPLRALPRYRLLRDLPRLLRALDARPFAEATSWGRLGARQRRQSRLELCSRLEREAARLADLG
Protocol: as §1, §2

human ZcytoR21x1 = target: T3, human ZcytoR21x1 (human, UniProt Q8NFR9 24-667)
T3 construct: also called hcytor21x1; IL-17RE
T3 sequence: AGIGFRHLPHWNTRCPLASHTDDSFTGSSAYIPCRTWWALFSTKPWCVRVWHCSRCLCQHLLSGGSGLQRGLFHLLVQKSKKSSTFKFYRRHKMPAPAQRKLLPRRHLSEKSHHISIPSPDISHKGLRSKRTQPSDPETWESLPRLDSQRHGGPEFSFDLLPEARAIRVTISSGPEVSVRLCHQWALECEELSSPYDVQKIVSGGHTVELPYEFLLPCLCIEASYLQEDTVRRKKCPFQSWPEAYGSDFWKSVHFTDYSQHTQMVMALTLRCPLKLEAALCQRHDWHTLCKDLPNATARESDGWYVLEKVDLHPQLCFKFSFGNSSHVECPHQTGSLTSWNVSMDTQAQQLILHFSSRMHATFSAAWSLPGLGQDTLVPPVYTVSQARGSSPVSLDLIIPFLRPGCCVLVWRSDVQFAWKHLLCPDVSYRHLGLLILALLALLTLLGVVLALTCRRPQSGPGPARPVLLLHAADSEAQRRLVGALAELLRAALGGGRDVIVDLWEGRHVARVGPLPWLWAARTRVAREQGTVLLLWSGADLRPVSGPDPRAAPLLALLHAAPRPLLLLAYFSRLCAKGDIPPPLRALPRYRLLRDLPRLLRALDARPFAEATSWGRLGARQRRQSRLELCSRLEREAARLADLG
Protocol: as §1, §2

Measured: binding result

B1: human IL-17C (ligand)
chain: HHDPSLRGHPHSHGTPHCYSAEELPLGQAPPHLLARGAKWGQALPVALVSSLEAASHRGRHERPSATTQCPVLRPEEVLEADTHQRSISPWRYRVDTDEDRYPQKLAFAECLCRGCIDARTGRETAALNSVRLLQSLLVLRRRPCSRDGSGLPTPGAFAFHTEFIHVPVGCTCVLPRSV
modifications: biotin label in the binding assays (sites not given); unlabelled in the signalling assays
notes: it is the last residue of the open reading frame as I know it; Recombinant forms made carried a C-terminal Glu-Glu tag (BHK) or His tag (293F); also called biotinylated human IL-17C; human IL-17C (A903G)
binds: human IL-17R | human ZcytoR21x2 | human ZcytoR21x1

From patent publication US20060142192A1 (ZymoGenetics, published 2006)
